Results on 2 molecules are retold here after patent US20190092846A1.

The target in experiment [1] is T1, mouse recombinant TGF-β2 (mouse) (UniProt P27090).
T1 sequence (looked up): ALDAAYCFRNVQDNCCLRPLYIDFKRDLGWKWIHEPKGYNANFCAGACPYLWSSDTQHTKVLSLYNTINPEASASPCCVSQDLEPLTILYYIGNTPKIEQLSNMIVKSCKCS
The experiment can be described thus: cell-based or functional assay.

The target in experiment [2] is T2, human recombinant TGF-β2 (human).
T2 sequence: T1 sequence (looked up) with T59S, K60R, N94K
The experiment can be described thus: ratio of the KD values of Table 4.

For experiment [3], the target named is T1, mouse recombinant TGF-β2 (mouse).
Experiment [4] has as its target T3, human TGF-β3 (human) (UniProt P10600).
T3 sequence: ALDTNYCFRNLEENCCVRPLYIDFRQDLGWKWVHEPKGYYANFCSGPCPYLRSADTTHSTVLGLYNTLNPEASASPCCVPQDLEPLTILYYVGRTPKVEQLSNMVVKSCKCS
In words: cell-based or functional assay.

Experiment [5] concerns the target T2, human recombinant TGF-β2 (human). In words: cell-based or functional assay.
The next experiment has as its target human TGF-β1 (human) (UniProt P01137). The experiment can be described thus: cell-based or functional assay.
The target of experiment [6] is T3, human TGF-β3 (human). In words: BiaCORE (surface plasmon resonance). Background: In SPR one partner is held on a chip, and binding of the other changes the refractive index at the surface.
Experiment [7] has as its target T2, human recombinant TGF-β2 (human). The experiment can be described thus: BiaCORE (surface plasmon resonance).

Residue numbers refer to the chain shown, from its start. Where only a bound is given, the exact number is not on record here.

human TGF-β1 (human), sequence (P01137 279-390 limits assumed): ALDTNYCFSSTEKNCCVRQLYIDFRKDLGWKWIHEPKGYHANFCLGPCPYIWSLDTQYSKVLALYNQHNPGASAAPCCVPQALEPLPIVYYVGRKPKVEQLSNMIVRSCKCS

B1: 1D11 (antibody, from another filing, V domains shown)
VH: QVQLQQSGPELVRPGASVKLSCKASGYIFITYWMNWVKQRPGQGLEWIGQIFPASGSTNYNEMFEGKATLTVDTSSSTAYMQLSSLTSEDSAVYYCARGDGNYALDAMDYWGQGTSVTVSS
VL: DIVLTQSPASLAVSLGQRATISCRASESVDSYGNSFMHWYQQKSGQPPKLLIYLASNLESGVPARFSGSGSRTDFTLTIDPVEADDAATYYCQQNNEDPLTFGAGTKLEIK
On to B1, for which the RGA (CAGA-12 luc/Smad-2/3 RGA; IC 50 [pM]) in experiment [1] was greater than 100000 pM.

B2: CAT-152 (antibody, INN chains, looked up, human IgG4, V domains shown)
VH: EVQLVESGGGVVQPGRSLRLSCAASGFTFSSYGMHWVRQAPGKGLEWVAVIWYDGSNKYYADSVKGRFTISRDNSKNTLYLQMDSLRAEDTAVYYCGRTLESSLWGQGTLVTVSS
VL: SSELTQDPAVSVALGQTVRITCQGDSLRSYYASWYQQKPGQAPVLVIYGKNNRPSGIPDRFSGSSSGNTASLTITGAQAEDEADYYCNSRDSSSTHRGVFGGGTKLTVL
For orientation: Kd means the equilibrium constant for the complex coming apart. Turning to B2, the fold lower KD for TGFβ2 than for TGFbeta 3 in experiment [2] is 16 fold. Besides, in experiment [3], the IC50 (read off the curve) (CAGA-12 luciferase reporter gene assay, HEK293T/17) came to 0.3 nM. Moreover, the RGA (CAGA-12 luc/Smad-2/3 RGA; IC 50 [pM]) is 1230 pM in the experiment with human TGF-β3 (human) [4], 26 pM in experiment [5], greater than 100000 pM with human TGF-β1 (human) and 298 pM in experiment [1]. The Kd with human TGF-β3 (human) [6] was 1.18 nM; in experiment [7], 0.073 nM.
